Measurements taken from US20260226187A1 (BIOATLA, published 2026).

Key:
Test in all cases: cell-based or functional assay
[1] = molecular target: Cynomolgus EpCAM expressed on CHO cells (cynomolgus monkey)
[2] = molecular target: T1, Human EpCAM expressed on cells (CHO-hEpCAM, HCT116) (human, UniProt P16422 24-314)
T1 sequence (looked up): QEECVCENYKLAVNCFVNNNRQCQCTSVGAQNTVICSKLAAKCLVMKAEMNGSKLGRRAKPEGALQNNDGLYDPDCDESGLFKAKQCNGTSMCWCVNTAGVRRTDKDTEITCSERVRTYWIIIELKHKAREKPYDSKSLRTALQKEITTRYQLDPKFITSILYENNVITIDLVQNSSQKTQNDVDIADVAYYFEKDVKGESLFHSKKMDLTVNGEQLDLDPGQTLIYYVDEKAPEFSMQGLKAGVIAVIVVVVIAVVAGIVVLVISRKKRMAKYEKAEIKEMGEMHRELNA

[3] = molecular target: T1, Human EpCAM expressed on cells …; remark: listed apart in the source
[4] = molecular target: Cynomolgus EpCAM expressed on CHO cells (cynomolgus monkey); remark: listed apart in the source
[5] = molecular target: T1, Human EpCAM expressed on cells …; remark: listed apart in the source
[6] = molecular target: T1, Human EpCAM expressed on cells …; remark: listed apart in the source

Cynomolgus EpCAM expressed on CHO cells (cynomolgus monkey), sequence (Q1WER1 24-314): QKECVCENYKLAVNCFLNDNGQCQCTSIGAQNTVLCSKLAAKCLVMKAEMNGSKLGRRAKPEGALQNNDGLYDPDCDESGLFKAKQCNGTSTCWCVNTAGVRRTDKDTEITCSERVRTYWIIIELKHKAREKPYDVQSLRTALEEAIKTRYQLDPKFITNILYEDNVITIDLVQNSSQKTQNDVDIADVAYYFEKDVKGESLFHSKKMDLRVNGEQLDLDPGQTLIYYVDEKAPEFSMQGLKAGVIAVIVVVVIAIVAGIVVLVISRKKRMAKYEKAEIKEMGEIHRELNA

EC50, cytolysis of CHO cynoEpCAM cells by cyno PBMC, pH 6.5, Experiment-1 [1]: 18.9 pM
EC50, cytolysis of CHO cynoEpCAM cells by cyno PBMC, pH 6.5, Experiment-2 [1]: 15.9 pM
EC50, cytolysis of CHO cynoEpCAM cells by cyno PBMC, pH 6.5, Experiment-3 [1]: 17.4 pM
EC50, cytolysis of CHO cynoEpCAM cells by cyno PBMC, pH 7.4, Experiment-1 [1]: 172 pM
EC50, cytolysis of CHO cynoEpCAM cells by cyno PBMC, pH 7.4, Experiment-2 [1]: 215 pM
EC50, cytolysis of CHO cynoEpCAM cells by cyno PBMC, pH 7.4, Experiment-3 [1]: 167 pM
EC50, cytolysis of HCT116 cells by human PBMC, pH 6.5, donor 13143 [2]: 1.66 pM
EC50, cytolysis of HCT116 cells by human PBMC, pH 6.5, donor 13290 [2]: 1.03 pM
EC50, cytolysis of HCT116 cells by human PBMC, pH 6.5, donor 13292 [2]: 2.05 pM
EC50, cytolysis of HCT116 cells by human PBMC, pH 6.5, donor 13371 [2]: 0.79 pM
EC50, cytolysis of HCT116 cells by human PBMC, pH 6.5, donor 13397 [2]: 1.19 pM
EC50, cytolysis of HCT116 cells by human PBMC, pH 6.5, donor 13411 [2]: 1.39 pM
EC50, cytolysis of HCT116 cells by human PBMC, pH 6.5, donor 75377 [2]: 0.6 pM
EC50, cytolysis of HCT116 cells by human PBMC, pH 6.5, donor 77535 [2]: 1.52 pM
EC50, cytolysis of HCT116 cells by human PBMC, pH 6.5, donor 85639 [2]: 0.88 pM
EC50, cytolysis of HCT116 cells by human PBMC, pH 6.5, donor 97529 [2]: 2.95 pM
EC50, cytolysis of HCT116 cells by human PBMC, pH 7.4, donor 13143 [2]: 8.73 pM
EC50, cytolysis of HCT116 cells by human PBMC, pH 7.4, donor 13290 [2]: 4.37 pM
EC50, cytolysis of HCT116 cells by human PBMC, pH 7.4, donor 13292 [2]: 6.35 pM
EC50, cytolysis of HCT116 cells by human PBMC, pH 7.4, donor 13371 [2]: 6.96 pM
EC50, cytolysis of HCT116 cells by human PBMC, pH 7.4, donor 13397 [2]: 5.9 pM
EC50, cytolysis of HCT116 cells by human PBMC, pH 7.4, donor 13411 [2]: 1.36 pM
EC50 IL-2 release, human PBMC co-cultured with HCT116, pH 6.5, donor 3371 [3]: 4.56 nM
EC50 IL-2 release, human PBMC co-cultured with HCT116, pH 6.5, donor 3378 [3]: 7.85 nM
EC50 IL-2 release, human PBMC co-cultured with HCT116, pH 6.5, donor 3397 [3]: 9.82 nM
EC50 IL-2 release, human PBMC co-cultured with HCT116, pH 6.5, donor 3411 [3]: 4.92 nM
EC50 IL-2 release, human PBMC co-cultured with HCT116, pH 6.5, donor 75377 [3]: 23.2 nM
EC50 IL-2 release, human PBMC co-cultured with HCT116, pH 6.5, donor 77535 [3]: 19.7 nM
EC50 IL-2 release, human PBMC co-cultured with HCT116, pH 6.5, donor 85639 [3]: 25.6 nM
EC50 IL-2 release, human PBMC co-cultured with HCT116, pH 6.5, donor 97529 [3]: 15 nM
EC50 INFγ release, human PBMC co-cultured with HCT116, pH 6.5, donor 3371 [3]: 5.28 nM
EC50 INFγ release, human PBMC co-cultured with HCT116, pH 6.5, donor 3378 [3]: 6.45 nM
EC50 INFγ release, human PBMC co-cultured with HCT116, pH 6.5, donor 3397 [3]: 10.1 nM
EC50 INFγ release, human PBMC co-cultured with HCT116, pH 6.5, donor 3411 [3]: 2.54 nM
EC50 INFγ release, human PBMC co-cultured with HCT116, pH 6.5, donor 75377 [3]: 2.53 nM
EC50 INFγ release, human PBMC co-cultured with HCT116, pH 6.5, donor 77535 [3]: 24 nM
EC50 INFγ release, human PBMC co-cultured with HCT116, pH 6.5, donor 97529 [3]: 2.52 nM
EC50, T cell activation bioassay (NFAT luminescence), CHO cynoEpCAM cells, pH 6.0, Experiment-1 [4]: 0.545 nM
EC50, T cell activation bioassay (NFAT luminescence), CHO cynoEpCAM cells, pH 6.0, Experiment-2 [4]: 0.597 nM
EC50, T cell activation bioassay (NFAT luminescence), CHO cynoEpCAM cells, pH 6.0, Experiment-3 [4]: 0.586 nM
EC50, T cell activation bioassay (NFAT luminescence), CHO cynoEpCAM cells, pH 7.4, Experiment-1 [4]: 9.46 nM
EC50, T cell activation bioassay (NFAT luminescence), CHO cynoEpCAM cells, pH 7.4, Experiment-2 [4]: 8.82 nM
EC50, T cell activation bioassay (NFAT luminescence), CHO cynoEpCAM cells, pH 7.4, Experiment-3 [4]: 10.7 nM
EC50, T cell activation bioassay (NFAT luminescence), CHO hEpCAM cells, pH 6.0, Experiment-1 [5]: 51 pM
EC50, T cell activation bioassay (NFAT luminescence), CHO hEpCAM cells, pH 6.0, Experiment-2 [5]: 49 pM
EC50, T cell activation bioassay (NFAT luminescence), CHO hEpCAM cells, pH 6.0, Experiment-3 [5]: 48 pM
EC50, T cell activation bioassay (NFAT luminescence), CHO hEpCAM cells, pH 7.4, Experiment-1 [5]: 0.358 nM
EC50, T cell activation bioassay (NFAT luminescence), CHO hEpCAM cells, pH 7.4, Experiment-2 [5]: 0.387 nM
EC50, T cell activation bioassay (NFAT luminescence), CHO hEpCAM cells, pH 7.4, Experiment-3 [5]: 0.403 nM
EC50, T cell activation bioassay (NFAT luminescence), HCT116 cells, pH 6.0, Experiment-1 [6]: 0.292 nM
EC50, T cell activation bioassay (NFAT luminescence), HCT116 cells, pH 6.0, Experiment-2 [6]: 0.288 nM
EC50, T cell activation bioassay (NFAT luminescence), HCT116 cells, pH 6.0, Experiment-3 [6]: 0.238 nM
EC50, T cell activation bioassay (NFAT luminescence), HCT116 cells, pH 7.4, Experiment-1 [6]: 1.86 nM
EC50, T cell activation bioassay (NFAT luminescence), HCT116 cells, pH 7.4, Experiment-2 [6]: 2.15 nM
EC50, T cell activation bioassay (NFAT luminescence), HCT116 cells, pH 7.4, Experiment-3 [6]: 1.96 nM
B1: BA3182 (bispecific antibody, human IgG1, kappa, N297Q)
light: DIQMTQSPSSLSASVGDRVTITCSASSSISYMHWYQQKPGQAPRLLIYSTSNLASGVPSRFSGSGSGTDFTFTISSLEAEDAATYYCHQWSTYHTFGQGTKVEIKRTVAAPSVFIFPPSDEQLKSGTASVVCLLNNFYPREAKVQWKVDNALQSGNSQESVTEQDSKDSTYSLSSTLTLSKADYEKHKVYACEVTHQGLSSPVTKSFNRGECSRSGGGGEVQLVESGGGLVQPGGSLRLSCAASGFTFNTYAMNWVRQAPGKGLEWVARIRSKYNNYATYYADSVKDRFTISRDDSKNSLYLQMNSLKTEDTAVYYCVRHSNFGNSKVSWFAYWGQGTLVTVSSGGSGGSGGSGGSGGQAVVTQEPSLTVSPGGTVTLTCRSSAGAVTTSNYDNWVQQKPGQAPRGLIGGTNKRAPWTPARFSGSLLGGKAALTITGAQAEDEADYYCALWYSNLWVFGGGTKLTVLSR
heavy: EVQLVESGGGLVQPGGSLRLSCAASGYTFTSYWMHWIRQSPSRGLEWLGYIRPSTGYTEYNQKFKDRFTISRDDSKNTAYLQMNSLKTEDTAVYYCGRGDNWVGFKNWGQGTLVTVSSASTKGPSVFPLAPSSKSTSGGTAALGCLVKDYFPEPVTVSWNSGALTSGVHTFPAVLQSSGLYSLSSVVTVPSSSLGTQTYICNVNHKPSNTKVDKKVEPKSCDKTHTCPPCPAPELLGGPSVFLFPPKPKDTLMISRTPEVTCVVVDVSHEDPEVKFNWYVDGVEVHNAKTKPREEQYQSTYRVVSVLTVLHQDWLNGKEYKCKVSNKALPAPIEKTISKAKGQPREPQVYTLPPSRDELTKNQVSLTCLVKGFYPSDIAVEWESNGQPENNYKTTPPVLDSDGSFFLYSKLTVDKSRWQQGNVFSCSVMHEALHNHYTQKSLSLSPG
notes: Human IgG1,k aglycosylated mutant (N297Q) with an anti-CD3 scFv on the C-terminus of each light chain; 200 kDa used for molar concentrations; also called BAP150.31-BF45; BA150.31-BF45
